Assay results published in patent US20220289816A1, “IMMUNOTHERAPY WITH B*07 RESTRICTED PEPTIDES AND COMBINATION OF PEPTIDES AGAINST CANCERS AND RELATED METHODS” (Immatics Biotechnologies GmbH, priority 2018, published 2022).

Molecular target: HLA-B*07 (Homo sapiens, UniProt P01889)
Test: MHC binding assay (UV-ligand exchange, ELISA of stabilized MHC complexes)
Settings: peptide exchange yield on HLA-B*07, UV-ligand exchange
Source text: Candidate peptides for T cell based therapies according to the present invention were further tested for their MHC binding capacity (affinity). The individual peptide-MHC complexes were produced by UV-ligand exchange, where a UV-sensitive peptide is cleaved upon UV-irradiation and exchanged with the peptide of interest as analyzed. Only peptide candidates that can effectively bind and stabilize the peptide-receptive MHC molecules prevent dissociation of the MHC complexes. To determine the yield of the exchange reaction, an ELISA was performed based on the detection of the light chain (β2m) of stabilized MHC complexes. The assay was performed as generally described in Rodenko et al. (Rodenko et al., 2006)
96 well MAXISorp plates (NUNC) were coated over night with 2 ug/ml streptavidin in PBS at room temperature, washed 4× and blocked for 1 h at 37° C. in 2% BSA containing blocking buffer. […] Peptide-MHC monomers of the UV-exchange reaction were diluted 100-fold in blocking buffer. Samples were incubated for 1 h at 37° C., washed four times, incubated with 2 ug/ml HRP conjugated anti-[…] for 1 h at 37° C., washed again and detected with TMB solution that is stopped with […]. Absorption was measured at 450 nm. Candidate peptides that show a high exchange yield (preferably higher than 50%, most preferred higher than 75%) are generally preferred for a generation and production of antibodies or fragments thereof, and/or T cell receptors or fragments thereof, as they show sufficient avidity to the MHC molecules and prevent dissociation of the MHC complexes.

Row | Substance | Peptide exchange
1 | 2 (VPGSDPARYEFL; listed as Homo sapiens) [compound 2] | +++ (>50 = +++)
2 | 7 (RPSQLAPATL; listed as Homo sapiens) [compound 7] | +++ (>50 = +++)
3 | 8 (MPKTNLSKM; listed as Homo sapiens) [compound 8] | +++ (>50 = +++)
4 | 10 (SPMEAELVRRIL; listed as Homo sapiens) [compound 10] | ++++ (>75% = ++++)
5 | 11 (APLPRPGAV; listed as Homo sapiens) [compound 11] | ++++ (>75% = ++++)
6 | 13 (LPNTGRIGQL; listed as Homo sapiens) [compound 13] | +++ (>50 = +++)
7 | 14 (AVHEIGHSL; listed as Homo sapiens) [compound 14] | +++ (>50 = +++)
8 | 15 (KPGFNISIL; listed as Homo sapiens) [compound 15] | ++++ (>75% = ++++)
9 | 16 (FPAPPAHWF; listed as Homo sapiens) [compound 16] | ++++ (>75% = ++++)
10 | 18 (MALSVLRLAL; listed as Homo sapiens) [compound 18] | ++ (>20% = ++)
11 | 19 (WPRLPGAGL; listed as Homo sapiens) [compound 19] | +++ (>50 = +++)
12 | 20 (MVLGIGPVL; listed as Homo sapiens) [compound 20] | ++++ (>75% = ++++)
13 | 22 (LPQLKPAL; listed as Homo sapiens) [compound 22] | ++++ (>75% = ++++)
14 | 25 (RPQGAVGGL; listed as Homo sapiens) [compound 25] | +++ (>50 = +++)
15 | 27 (RIRVTSEVL; listed as Homo sapiens) [compound 27] | +++ (>50 = +++)
16 | 28 (LPAPTSLVL; listed as Homo sapiens) [compound 28] | ++++ (>75% = ++++)
17 | 29 (APLRVHITSL; listed as Homo sapiens) [compound 29] | ++++ (>75% = ++++)
18 | 30 (YPGFTKRL; listed as Homo sapiens) [compound 30] | +++ (>50 = +++)
19 | 31 (RPGPSDPAA; listed as Homo sapiens) [compound 31] | +++ (>50 = +++)
20 | 32 (APMAPGRSPL; listed as Homo sapiens) [compound 32] | ++++ (>75% = ++++)
21 | 34 (APMAPGRSP; listed as Homo sapiens) [compound 34] | +++ (>50 = +++)
22 | 35 (APLPPPRAL; listed as Homo sapiens) [compound 35] | +++ (>50 = +++)
23 | 36 (RPFSREMDL; listed as Homo sapiens) [compound 36] | +++ (>50 = +++)
24 | 37 (LPPPRALTL; listed as Homo sapiens) [compound 37] | +++ (>50 = +++)
25 | 39 (QPRPSSEKI; listed as Homo sapiens) [compound 39] | +++ (>50 = +++)
26 | 40 (FPRTVKHIDAAL; listed as Homo sapiens) [compound 40] | ++++ (>75% = ++++)

Row | Substance | Peptide exchange
27 | 41 (MPAGGGPRSL; listed as Homo sapiens) [compound 41] | ++++ (>75% = ++++)
28 | 42 (APLKMLAL; listed as Homo sapiens) [compound 42] | ++++ (>75% = ++++)
29 | 43 (APTPRPKVL; listed as Homo sapiens) [compound 43] | ++++ (>75% = ++++)
30 | 44 (SPSQTVQRAV; listed as Homo sapiens) [compound 44] | ++++ (>75% = ++++)
31 | 46 (QPISGNPVTL; listed as Homo sapiens) [compound 46] | +++ (>50 = +++)
32 | 47 (RPRQTGALM; listed as Homo sapiens) [compound 47] | ++++ (>75% = ++++)
33 | 50 (PEKARAFL; listed as Homo sapiens) [compound 50] | +++ (>50 = +++)
34 | 52 (KEDNPSGHTYTL; listed as Homo sapiens) [compound 52] | +++ (>50 = +++)
35 | 54 (VPSCGRSVEGL; listed as Homo sapiens) [compound 54] | +++ (>50 = +++)
36 | 60 (RPYSIYPHGVTF; listed as Homo sapiens) [compound 60] | ++++ (>75% = ++++)
37 | 62 (KPQSTISGL; listed as Homo sapiens) [compound 62] | +++ (>50 = +++)
38 | 63 (FPHMATTAF; listed as Homo sapiens) [compound 63] | +++ (>50 = +++)
39 | 65 (FPNVYSTLVL; listed as Homo sapiens) [compound 65] | ++++ (>75% = ++++)
40 | 66 (LPMTVISVL; listed as Homo sapiens) [compound 66] | ++++ (>75% = ++++)
41 | 67 (VPVSRPVL; listed as Homo sapiens) [compound 67] | ++++ (>75% = ++++)
42 | 69 (RPEDGRPRL; listed as Homo sapiens) [compound 69] | +++ (>50 = +++)
43 | 70 (VPAQRLGLL; listed as Homo sapiens) [compound 70] | ++++ (>75% = ++++)
44 | 71 (APFAPLHGGGSL; listed as Homo sapiens) [compound 71] | +++ (>50 = +++)
45 | 72 (APCNGNVAV; listed as Homo sapiens) [compound 72] | +++ (>50 = +++)
46 | 73 (LPVSSPVTL; listed as Homo sapiens) [compound 73] | ++++ (>75% = ++++)
47 | 74 (VPVSHPVL; listed as Homo sapiens) [compound 74] | ++++ (>75% = ++++)
48 | 75 (HVRPQTNCI; listed as Homo sapiens) [compound 75] | +++ (>50 = +++)
49 | 76 (KPKVESQAL; listed as Homo sapiens) [compound 76] | ++++ (>75% = ++++)
50 | 77 (QPRLVPGETL; listed as Homo sapiens) [compound 77] | ++++ (>75% = ++++)
51 | 78 (HPSQESPTL; listed as Homo sapiens) [compound 78] | +++ (>50 = +++)

Other lines, results leading:

Row | Peptide exchange | Substance
52 | +++ (>50 = +++) | 79 (GPASDHPSL; listed as Homo sapiens) [compound 79]
53 | +++ (>50 = +++) | 80 (SALPTTISF; listed as Homo sapiens) [compound 80]
54 | ++ (>20% = ++) | 81 (IAYPSLREAAL; listed as Homo sapiens) [compound 81]
55 | ++ (>20% = ++) | 83 (AVSSHHNVI; listed as Homo sapiens) [compound 83]
56 | +++ (>50 = +++) | 84 (MPMQDIKMI; listed as Homo sapiens) [compound 84]
57 | +++ (>50 = +++) | 85 (MPMQDIKMILKM; listed as Homo sapiens) [compound 85]
58 | ++ (>20% = ++) | 86 (ALLLRGVTL; listed as Homo sapiens) [compound 86]
59 | +++ (>50 = +++) | 87 (APVGGNVTSSF; listed as Homo sapiens) [compound 87]
60 | ++ (>20% = ++) | 88 (KPSAVKDSIY; listed as Homo sapiens) [compound 88]
61 | ++ (>20% = ++) | 89 (FLIPRAGWLAGL; listed as Homo sapiens) [compound 89]
62 | ++++ (>75% = ++++) | 91 (FPRLVGPDFF; listed as Homo sapiens) [compound 91]
63 | +++ (>50 = +++) | 92 (TSPLPPTV; listed as Homo sapiens) [compound 92]
64 | ++++ (>75% = ++++) | 93 (SVAIAHGVF; listed as Homo sapiens) [compound 93]
65 | +++ (>50 = +++) | 94 (LPMSKRQEY; listed as Homo sapiens) [compound 94]
66 | ++ (>20% = ++) | 95 (RTKEEINEL; listed as Homo sapiens) [compound 95]
67 | ++++ (>75% = ++++) | 96 (QPSLVQAIF; listed as Homo sapiens) [compound 96]
68 | ++++ (>75% = ++++) | 98 (FPCSALLACF; listed as Homo sapiens) [compound 98]
69 | ++++ (>75% = ++++) | 99 (MPVSAFTVI; listed as Homo sapiens) [compound 99]
70 | + (>10% = +) | 101 (KPGLPGLK; listed as Homo sapiens) [compound 101]
71 | ++ (>20% = ++) | 102 (MAGPAIHTAPM; listed as Homo sapiens) [compound 102]
72 | ++ (>20% = ++) | 103 (REPIMKADML; listed as Homo sapiens) [compound 103]
73 | +++ (>50 = +++) | 104 (RPLPNSVIHV; listed as Homo sapiens) [compound 104]
74 | ++++ (>75% = ++++) | 105 (RPRYETGVCA; listed as Homo sapiens) [compound 105]
75 | +++ (>50 = +++) | 106 (APFHIDRLF; listed as Homo sapiens) [compound 106]
76 | +++ (>50 = +++) | 108 (APRGSPPI; listed as Homo sapiens) [compound 108]
